Our source for the proliferation of OPCs (BrdU^+/A2B5^+ cells), BrdU incorporation of A2B5^+ OPCs and migration of Olig2^+ OPCs through the filter (transwell) values is patent US20080057028A1.

Test [1] has as its target VEGFR-3 on mouse oligodendrocyte precursor cells (OPCs) (mouse) (UniProt P35917). The test can be described thus: cell-based or functional assay.
The target of test [2] is neuropilin-2 on mouse oligodendrocyte precursor cells (OPCs) (mouse) (UniProt O35375). The test can be described thus: cell-based or functional assay.
UniProt O35375, sequence (O35375 21-931): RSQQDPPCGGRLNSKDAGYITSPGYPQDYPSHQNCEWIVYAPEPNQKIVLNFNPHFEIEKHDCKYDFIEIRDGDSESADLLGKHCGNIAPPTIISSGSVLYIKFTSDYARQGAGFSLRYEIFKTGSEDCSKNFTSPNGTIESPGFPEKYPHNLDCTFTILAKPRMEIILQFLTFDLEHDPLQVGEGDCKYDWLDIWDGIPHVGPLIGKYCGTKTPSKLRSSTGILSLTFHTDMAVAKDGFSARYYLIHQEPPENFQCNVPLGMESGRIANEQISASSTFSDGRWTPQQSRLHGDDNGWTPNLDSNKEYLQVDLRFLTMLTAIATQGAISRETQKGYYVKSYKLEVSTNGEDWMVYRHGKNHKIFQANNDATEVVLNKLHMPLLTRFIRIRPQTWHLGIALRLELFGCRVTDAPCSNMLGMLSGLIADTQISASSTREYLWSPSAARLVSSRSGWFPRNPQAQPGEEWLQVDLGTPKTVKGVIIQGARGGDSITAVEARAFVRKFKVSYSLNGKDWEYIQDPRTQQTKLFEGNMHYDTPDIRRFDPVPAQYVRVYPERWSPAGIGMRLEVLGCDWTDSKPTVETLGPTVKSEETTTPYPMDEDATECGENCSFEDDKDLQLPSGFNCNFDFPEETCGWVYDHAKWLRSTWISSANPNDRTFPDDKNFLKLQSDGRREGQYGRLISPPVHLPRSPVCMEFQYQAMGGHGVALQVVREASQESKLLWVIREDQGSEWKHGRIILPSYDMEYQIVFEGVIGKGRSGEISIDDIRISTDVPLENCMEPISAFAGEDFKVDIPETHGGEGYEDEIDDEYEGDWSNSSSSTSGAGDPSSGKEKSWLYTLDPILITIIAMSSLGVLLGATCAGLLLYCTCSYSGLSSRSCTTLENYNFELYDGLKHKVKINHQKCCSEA

UniProt P35917, sequence (P35917 25-1363): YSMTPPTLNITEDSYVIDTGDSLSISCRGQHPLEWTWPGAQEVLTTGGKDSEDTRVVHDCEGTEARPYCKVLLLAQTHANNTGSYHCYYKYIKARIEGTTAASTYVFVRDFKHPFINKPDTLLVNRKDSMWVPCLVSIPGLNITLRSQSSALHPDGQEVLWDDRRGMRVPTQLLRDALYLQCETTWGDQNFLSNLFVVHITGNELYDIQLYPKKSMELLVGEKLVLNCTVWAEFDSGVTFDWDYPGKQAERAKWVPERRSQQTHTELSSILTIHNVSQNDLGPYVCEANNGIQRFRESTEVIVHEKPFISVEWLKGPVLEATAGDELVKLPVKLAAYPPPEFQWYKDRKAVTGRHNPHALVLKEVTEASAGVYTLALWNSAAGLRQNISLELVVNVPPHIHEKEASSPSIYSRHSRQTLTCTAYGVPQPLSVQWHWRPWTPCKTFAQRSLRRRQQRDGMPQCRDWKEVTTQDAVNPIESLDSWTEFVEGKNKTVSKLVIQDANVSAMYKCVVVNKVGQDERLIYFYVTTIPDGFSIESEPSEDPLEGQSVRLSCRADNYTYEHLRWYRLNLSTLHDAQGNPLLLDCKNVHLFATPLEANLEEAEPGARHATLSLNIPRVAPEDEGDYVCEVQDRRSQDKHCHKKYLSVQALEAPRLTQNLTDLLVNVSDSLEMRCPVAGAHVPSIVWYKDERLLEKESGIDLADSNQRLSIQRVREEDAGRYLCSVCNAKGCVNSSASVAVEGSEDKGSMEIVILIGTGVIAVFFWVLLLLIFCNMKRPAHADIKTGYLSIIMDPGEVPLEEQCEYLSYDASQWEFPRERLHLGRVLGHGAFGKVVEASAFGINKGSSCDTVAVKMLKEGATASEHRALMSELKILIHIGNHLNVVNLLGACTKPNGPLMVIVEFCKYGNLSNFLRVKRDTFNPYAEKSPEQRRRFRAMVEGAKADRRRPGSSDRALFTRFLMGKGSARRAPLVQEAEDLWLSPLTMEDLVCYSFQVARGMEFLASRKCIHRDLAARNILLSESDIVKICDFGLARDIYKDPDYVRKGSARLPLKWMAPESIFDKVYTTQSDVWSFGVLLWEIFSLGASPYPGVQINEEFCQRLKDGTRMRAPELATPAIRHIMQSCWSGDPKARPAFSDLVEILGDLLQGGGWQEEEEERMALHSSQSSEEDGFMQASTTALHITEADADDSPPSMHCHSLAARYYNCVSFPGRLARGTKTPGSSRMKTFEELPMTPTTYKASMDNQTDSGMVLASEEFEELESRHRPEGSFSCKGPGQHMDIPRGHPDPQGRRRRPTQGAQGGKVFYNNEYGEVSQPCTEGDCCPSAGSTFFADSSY

“human VEGF-C156S (R&D Systems) (from UniProt P49767 103-227) (ligand)” registered a proliferation of OPCs (BrdU^+/A2B5^+ cells) in test [1] of 50%.

As for “VEGF-C (supernatant of COS cells secreting VEGF-C) (ligand)”, the BrdU incorporation of A2B5^+ OPCs in test [2] was found to be 2 fold.

Consider “recombinant rat VEGF-C (Reliatech) (from UniProt O35757 99-223) (ligand)”, for which, in test [1], the migration of Olig2^+ OPCs through the filter (transwell) was more than 2 fold and the proliferation of OPCs (BrdU^+/A2B5^+ cells) was 2 fold.
